Literature values in PMC10404681, “Intrinsic catalytic properties of histone H3 lysine-9 methyltransferases preserve monomethylation levels under low S-adenosylmethionine” (The Journal of Biological Chemistry, 2023).

Target: histone H3 peptide (Homo sapiens) (UniProt P68431)

Sequence of EHMT1/EHMT2 heterodimer (Q9H9B1 2-1298): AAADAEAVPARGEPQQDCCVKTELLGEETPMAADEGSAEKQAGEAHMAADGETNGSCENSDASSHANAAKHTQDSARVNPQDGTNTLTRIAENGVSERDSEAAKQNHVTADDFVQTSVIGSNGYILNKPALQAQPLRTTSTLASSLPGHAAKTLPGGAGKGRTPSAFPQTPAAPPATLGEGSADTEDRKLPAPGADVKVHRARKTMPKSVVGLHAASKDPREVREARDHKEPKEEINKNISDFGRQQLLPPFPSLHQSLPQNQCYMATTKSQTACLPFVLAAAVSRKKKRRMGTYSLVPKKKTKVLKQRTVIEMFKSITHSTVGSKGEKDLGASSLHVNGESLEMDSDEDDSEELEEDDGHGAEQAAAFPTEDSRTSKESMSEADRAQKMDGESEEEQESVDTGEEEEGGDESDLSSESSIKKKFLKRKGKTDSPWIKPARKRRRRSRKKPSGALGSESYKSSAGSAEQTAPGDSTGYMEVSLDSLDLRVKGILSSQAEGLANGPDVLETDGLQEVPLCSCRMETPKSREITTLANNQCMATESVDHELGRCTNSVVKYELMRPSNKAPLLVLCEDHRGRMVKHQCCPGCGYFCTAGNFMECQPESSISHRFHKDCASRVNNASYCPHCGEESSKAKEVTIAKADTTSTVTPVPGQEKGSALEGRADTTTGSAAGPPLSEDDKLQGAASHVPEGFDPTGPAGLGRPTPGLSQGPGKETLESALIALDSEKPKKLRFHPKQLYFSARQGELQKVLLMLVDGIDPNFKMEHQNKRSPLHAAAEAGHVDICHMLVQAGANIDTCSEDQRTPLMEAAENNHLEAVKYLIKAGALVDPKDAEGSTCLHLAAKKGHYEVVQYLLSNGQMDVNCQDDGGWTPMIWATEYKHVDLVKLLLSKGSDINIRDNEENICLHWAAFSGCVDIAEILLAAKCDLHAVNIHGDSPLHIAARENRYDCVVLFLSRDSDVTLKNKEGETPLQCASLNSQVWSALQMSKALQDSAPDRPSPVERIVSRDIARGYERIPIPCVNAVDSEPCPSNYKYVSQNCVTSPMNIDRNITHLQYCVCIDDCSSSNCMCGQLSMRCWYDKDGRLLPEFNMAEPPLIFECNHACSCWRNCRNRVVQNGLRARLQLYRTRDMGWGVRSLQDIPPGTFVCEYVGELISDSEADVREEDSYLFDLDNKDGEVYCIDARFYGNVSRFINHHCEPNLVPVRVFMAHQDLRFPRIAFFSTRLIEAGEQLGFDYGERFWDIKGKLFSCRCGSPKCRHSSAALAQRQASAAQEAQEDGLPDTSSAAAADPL
Sequence of EHMT1/EHMT2 heterodimer (Q96KQ7 2-1210, further chain): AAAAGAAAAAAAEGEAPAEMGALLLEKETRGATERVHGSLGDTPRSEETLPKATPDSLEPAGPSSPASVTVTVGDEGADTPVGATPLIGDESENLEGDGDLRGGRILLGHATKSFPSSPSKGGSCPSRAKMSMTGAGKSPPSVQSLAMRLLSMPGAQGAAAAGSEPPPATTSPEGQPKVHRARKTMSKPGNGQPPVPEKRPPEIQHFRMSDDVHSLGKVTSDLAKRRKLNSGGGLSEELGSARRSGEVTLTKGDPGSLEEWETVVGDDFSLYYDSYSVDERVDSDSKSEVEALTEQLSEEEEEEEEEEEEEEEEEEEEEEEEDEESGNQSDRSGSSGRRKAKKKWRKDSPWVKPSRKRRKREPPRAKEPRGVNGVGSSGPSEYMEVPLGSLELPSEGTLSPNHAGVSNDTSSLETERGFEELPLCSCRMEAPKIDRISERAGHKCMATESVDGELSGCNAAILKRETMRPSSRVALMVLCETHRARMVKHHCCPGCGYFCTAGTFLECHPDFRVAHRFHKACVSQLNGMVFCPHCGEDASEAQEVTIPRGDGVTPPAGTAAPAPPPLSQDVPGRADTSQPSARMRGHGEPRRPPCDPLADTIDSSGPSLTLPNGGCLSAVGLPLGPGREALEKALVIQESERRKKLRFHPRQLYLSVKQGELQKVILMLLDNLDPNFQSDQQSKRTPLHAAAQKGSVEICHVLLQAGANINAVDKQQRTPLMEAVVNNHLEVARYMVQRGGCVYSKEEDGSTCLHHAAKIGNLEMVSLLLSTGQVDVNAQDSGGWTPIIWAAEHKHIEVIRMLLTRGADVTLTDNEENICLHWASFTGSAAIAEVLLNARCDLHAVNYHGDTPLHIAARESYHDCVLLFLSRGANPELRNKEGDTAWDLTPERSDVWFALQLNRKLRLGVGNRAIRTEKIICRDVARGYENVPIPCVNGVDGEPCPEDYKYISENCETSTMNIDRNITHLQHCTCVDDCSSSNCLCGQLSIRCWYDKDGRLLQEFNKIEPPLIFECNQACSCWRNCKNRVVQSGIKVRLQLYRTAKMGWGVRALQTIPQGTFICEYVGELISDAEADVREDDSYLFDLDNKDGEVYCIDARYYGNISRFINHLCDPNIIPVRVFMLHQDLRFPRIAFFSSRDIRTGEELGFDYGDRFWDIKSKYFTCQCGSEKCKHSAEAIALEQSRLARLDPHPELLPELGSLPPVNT

Substance: EHMT1/EHMT2 heterodimer (from UniProt Q9H9B1)
- Kd: 7.35 µM
